Reference: PMC8866119 (Nature, 2021)

Molecular target: SARS-CoV-2 Omicron (B.1.1.529) RBD (SARS-CoV-2 Omicron B.1.1.529 (BA.1), strain)

B1: BD-713 (antibody, V domains shown)
VH: EVQLVESGGGLVQPGRSLRLSCAASGFTFDDYAMHWVRQAPGKGLEWVSGMSWNSGTIGYADSVKGRFTIIRDNAKNSLYLQMIRLRAEDTALYYCAKASPRLDTAMAPFDYWGQGTLVTVSS
VL: SYVLTQPPSVSVAPGKTARITCGGNNIGSKSVHWYQQKPGQAPALVIYYDNDRPSGLPERFSGSNSGNTATLTISRVEAGDEADYYCQVWHSSSDSLVFGGGTKLTVL
binding result: binds

B2: BD-796 (antibody, V domains shown)
VH: QVQLVQSGAEVKKPGSSVKVSCKASGGTFSSYAINWMRQAPGQGLEWMGGIIPILGIPNSAQKFQGRVTITADKSTSTAYMELSSLRSEDTAVYYCARMYNYDSSGLEADAFDIWGQGTMVTVSS
VL: QSVLTQPPSVSGAPGQRVTISCTGSSSNIGAGYDVHWYQQLPGTAPKLLIYGNSNRPSGVPDRFSGSKSGTSASLAITGLQAEDEADYYCQSYDSSLSGVVFGGGTKLTVL
binding result: binds

B3: BD-923 (antibody, V domains shown)
VH: EVLLVESGGGLVQPGRSLRLSCTASGFTFEDYAMHWVRQAPGKGLEWVSGMSWNSGTIGYADSVRGRFIISRDNAKNSLYLQMNSLRAEDTALYYCGKDRGFGESLYYVMDVWGQGATVTVSS
VL: QSALTQPASVSGSPGQSITISCTGTSSDVGVYNYVSWYQQHPGKAPKLMIYNVSDRPSGVSNRFSGSKSGNTASLTISGLQAEDEADYYCSSYTSSSIVIFGGGTKLTVL
binding result: binds

B4: BD-907 (antibody, V domains shown)
VH: QVQLVQSGSELKKPGASVKVSCKASGYTFSSYYLNWVRQAPGQGLEWMGWIDTNTGNPTYAQAFTGRFVFSLDTSVSTAYLQIGSLQANDTAVYYCAREGGGWSGLYYYFGMDVWGQGTTVTVSS
VL: EIVLTQSPGTLSLSPGERATVSCRASQSIGSNYLAWYQQKPGQAPRLLIYGASSRATGIPDRFSGSGSGTDFTLTISRLEPEDFAVYYCQQYGSSPPYTFGQGTKLEIK
binding result: binds

B5: C576 (antibody, V domains shown)
VH: QVQLVQSGAEVKKPGSSVKVSCKASGGTFSIYAISWVRQAPGQGLEWMGGIIPILGTANYAQKFQGRVTITADESTSTAYMELSSLRSEDTAVYYCASFHVAYGDYIPFDYWGQGTLVTVSS
VL: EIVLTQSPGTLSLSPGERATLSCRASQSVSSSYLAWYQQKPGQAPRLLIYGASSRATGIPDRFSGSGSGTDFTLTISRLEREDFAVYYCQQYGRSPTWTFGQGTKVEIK
binding result: binds

B6: DH1044 (antibody, V domains shown)
VH: QVQLVESGGGVVQPGRSLRLSCAASGFTFSSYGMHWVRQAPGKGLEWVAVISFDGSNKYYVDSVKGRFTISRDNSKNTLYLQMNSLRAEDTAVYYCAKDMHNDYGDYVSYYFYYGMDVWGQGTTVTVSS
VL: QSVLTQPPSVSAAPGQKVIISCSGSSSNIGNNYVSWYQQLPGTAPKLLIYENNKRPSGIPDRFSGSKSGTSATLGITGLQTGDEADYYCGTWDSSLRTDVFGGGTKLIVL
binding result: binds

B7: C581 (antibody, V domains shown)
VH: EVQLVQSGAEVKKPGESLKISCKGSGYRFTSYWIAWVRQMPGKGLEWMGIIYPGDSDTRYSPSFQGQVTISADQSISTAYLQWSSLKASDTAMYYCARGGPPGGVKLELTDYWGQGALVTVSS
VL: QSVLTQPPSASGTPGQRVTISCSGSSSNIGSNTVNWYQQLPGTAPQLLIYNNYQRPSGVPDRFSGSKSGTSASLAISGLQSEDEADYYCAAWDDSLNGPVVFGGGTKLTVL
binding result: binds

B8: C556 (antibody, V domains shown)
VH: QVQLVQSGAEVKKPGASVKVSCKASGYTFTYYYMHWVRQAPGQGLEWMGIINPSGGSTSYAQKFQGRVTMTRDTSTSTVYMELSSLRSEDTAVYYCARPLLPGETGSLNRLDYWGQGTLVTVSS
VL: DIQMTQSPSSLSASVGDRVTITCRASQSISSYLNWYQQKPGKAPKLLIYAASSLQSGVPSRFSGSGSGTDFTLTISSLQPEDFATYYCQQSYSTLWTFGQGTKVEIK
binding result: binds

B9: DH1193 (antibody, V domains shown)
VH: QVQLVESGGGVVQPGRSLRLSCAASGFTFSNYGMHWVRQAPGKGLEWVTVISYDGSNKYYADSVKGRFTISRDNSKNTLYLQMNSLRAEDTAVYYCAKVLTWSIHPEDYYYGMDVWGQGTTVTVSS
VL: QSALTQPPSASGSPGQSVTISCTGTSSDVGGYNYVSWYQQHPGKAPKLMIYEVSQRPSGVPDRFSGSKSGNTASLTVSGLQAEDEADYYCSSYAGSNIGVFGGGTTLTVL
binding result: binds

B10: BD-815 (antibody, V domains shown)
VH: EVQLVQSGPEVKKPGESLKISCKASGYSFISNWIGWVRQMPGKGLEWMGIIYPGDSDTRYSPSFQGQVTISADRSITTAYLQWSSLKASDTAIYYCARLGSSWYWVDYWGQGTLVTVSS
VL: SSELTQDPAVSVALGQTVRITCQGDSLRSYHASWYQQKPGQAPILVIYDKNNRPSGIPDRFSGSGSGNTASLTITGAQAEDEADYYCNSRDSSGDHLVFGTGTKVTVL
binding result: binds

B11: BD55-4325 (antibody, V domains shown)
VH: QAQLVQSGAEVKKPGASVKVSCEAIGYAFKTYGISWVRQAPGQGLEWVGWISGHDGTTNYAQKFQGRVTLTTDTSTNTAFLEVKSLRSDDTAVFYCARDKAYSGYDYWSTIFDYWGQGTLVTVST
VL: SYVLTQPPSVSVAPGKTATITCGGNNIRSKSVQWFQQRPGQAPILVLYYDTDRPSGIPERFSGSNSGNTATLTISRVEAGDEADYYCQVWDSTTDHYLFGTGTKVTVL
binding result: binds

B12: COV2-2389 (antibody, V domains shown)
VH: EVQLVESGGGLVQPGRSLRLSCAASGFTFDDYAMHWVRQAPGKGLEWVSGISWNSGTIGYADSVKGRFIISRDNAKNSLYLQMNSLRPEDTALYYCAKDIIRQGEDGMDVWGQGTTVTVSS
VL: DIQMTQSPSSLSASVGDRVTITCRASQNIASYLNWYQQKPGKAPKLLIYAASSLQSGVPSRFSGSGSGTDFTLTISSLQPEEFATYYCQQSYSTPWTFGQGTKVEIK
binding result: binds

B13: BD55-3525 (antibody, V domains shown)
VH: EVQVVESGGGLVKPGGSLRLSCAGSGFTFNYAWMNWVRQAPGKGLEWVGRIKSETGGGTTDYAAPVRGRFTISRDDSKDTVFLQMNSLKTEDTAVYYCTTEATVTSWDAFDVWGQGTLVTVST
VL: QSVLTQPPSASGTSGQRVTISCSGSSSNIGSNTVNWYQQIPRRAPKLLIYRNNQRPSGVPDRFSASKSGTSASLAISGLHSEDEADYYCAAWDDRLNGFVFGTGTKVTVL
binding result: binds

B14: BD55-1294 (antibody, V domains shown)
VH: QLHLQESGPGLVKPSETLSLTCTVSGGSIFSSTYYWGWIRQTPGKGLEWIGSFYNGGSTYYNPSLESRVTISEDTSKNQFSLKLSSVTAADTAVYYCARDLSETASYHNWFDPWGQGTLVTVSS
VL: DIQLTQSPSFLSASVGDRITITCRASQAISNYLAWYQQKPGKAPKLLIYGASTLHSGVPSRFSGSHSGSEFTLTISGLQPEDFATYYCQQLNSFGPGTKVDIK
binding result: binds

B15: BD55-1831 (antibody, V domains shown)
VH: QVQLQESGPGLVKPSQTLSLTCTVSGGSISNGDYYWSWIRQPPGKGLEWIGYIHNSGSTYKKLSLRSRLTISVDTSKNQFSLKLSSVTAADTAVYYCARTASPSGAWYFDFWGRGTLVTVSS
VL: SYVLTQPPSVSVAPGQTARITCGGNDIGSKNVHWYQQKPGQAPLLVVYDDTDRPSGIPERFSGSNSGNPATLTISRVEAGDEADYYCQVWDSSFDHVIFGGGTKLTVL
binding result: binds

B16: BD-913 (antibody, V domains shown)
VH: QVQLVQSGAEVKKPGSSVKVSCKASGGTFSTYAISWVRQAPGQGLEWMGGIIPIVGIANDAQKFQGRVTITADKSTSTAYMELSSLRSEDTAVFYCARAQRKQWPVEDAYDIWGQGTMVTVSS
VL: QSVLTQPPSVSGAPGQRVTISCTGSSSNIGAGYDVHWYQQLPGTAPKLLIYGNSNRPSGVPDRFSGSKSGTSASLAITGLQAEDEADYYCQSYDSSLSGSVFGGGTKVTVL
binding result: binds

B17: BD-692 (antibody, V domains shown)
VH: EVQLVESGGGLVQPGGSLRLSCAASGFTFSSHGMNWVRQAPGKGLEWVSYISSRDSTIYYADSVKGRFTISRDNAKNSLYLQMNSLRDEDTAVYYCARDNSDYDYSFGAYYFDYWGQGTLVTVSS
VL: EIVLTQSPATLSLSPGERATVSCRASQSVSNFLAWYQQKPGQAPRLLIHDASNRATGIPARFSGSGSGTDFTLTISSLEPEDFAVYYCQQRRNWPPVTFGQGTRLEIK
binding result: binds

B18: S304 (antibody, V domains shown)
VH: EVQLVESGGGLVQPGGSLRLSCAASGFTFSSYDMHWVRQTTGKGLEWVSTIGTAGDTYYPDSVKGRFTISREDAKNSLYLQMNSLRAGDTAVYYCARGDSSGYYYYFDYWGQGTLLTVSS
VL: DIEMTQSPSSLSAAVGDRVTITCRASQSIGSYLNWYQQKPGKAPKLLIYAASSLQSGVPSRFSGSGSGTDFTLTISSLQPEDFAIYYCQQSYVSPTYTFGPGTKVDIK
binding result: binds

B19: COV2-2103 (antibody, V domains shown)
VH: EVQLVESGGGLVQPGGSLRLSCAASGFTFSRHWMTWVRQAPGKGLEWVANIKQDGSEKYYVDSVKGRLTISRDNAKNSLYLQMNSLRAEDTAVYYCARLGFYYGGADYWGQGTLVTVSS
VL: NFMLTQPHSVSESPGKTVTISCTGSSGSIASNYVQWYQQRPGSAPTTVISEDNQRPSGVPDRFSGSIDSSSNSASLTISGLKTEDEADYYCQSYDGINRAWVFGGGTKLTVL
binding result: binds

B20: BD55-5300 (antibody, V domains shown)
VH: QVQLVQSGAEVKKPGSSVKVSCKASGGSFTSHAVSWVRQAPGQGLEWMGVSIPLFGTAKYAQKFQGRVTITADESTSTVYMSLSNLRSGDTAVYYCARLFPNGTPTDLTAPSDYWGQGTLVTVSS
VL: DIQMTQSPSSLSASVGDRVTITCQASQDIGNYLNWYQQKPGKAPKLLIYDASHLETGVPSRFSGSASGTDFTLTISSLQPDDIATYYCQRYDDVPTYTFGQGTKLEIK
binding result: binds

B21: BD55-3372 (antibody, V domains shown)
VH: EVHLVESGGGLVKPGGSLRLSCAASGFTFSNYAMNWVRQAPGKGLQWVSSITGSSSFIFYADSVKGRFTIVRDNAQNSLYLQMNSLRDEDTAVYYCARERDDYDTRLDWGQGTLVTVSS
VL: QPMLTQPPSVSGAPGQTVTISCVGSSSNIGAGYEVHWYQQLPGTAPKRLLSGNSDRPSGVPDRFSGSKSGTSASLAITGLQADDEADYYCQSYDSSLSLSAVVFGGGTKLTVL
binding result: binds

B22: BD55-3500 (antibody, V domains shown)
VH: QVQLVESGGGVVQPGRSLRLSCAASGFIFSRYDIHWVRQTPGKGLEWVALIRYDGSDKYYADSVKGRFTISRDNSKNTLYLQMNSLRVEDTAVYYCAKEGIQGYSGYDYFWTGFYFDYWGQGTLVTVSS
VL: not shown
binding result: binds

B23: BD55-5339 (antibody, V domains shown)
VH: EVQLVESGEGLVQPGGSLRISCAASGFTFSNYPMHWVRQAPGQGLESVSSITSNGDGTFYANSVKGRFTISRDNSKNTLYLQMGSLRTEDTALYFCAREVAEQLDCYFDLWGRGTLVTVSS
VL: DIQMTQSPSSLSASVGDRVTITCRASQSIRTYLNWYQHKPGKAPKLLIFAASSLQSGVPSRFSGSGSGTDFSLTISSLQPEDFATYYCQQSYITPPITFGQGTRLEIK
binding result: binds
